Source: paper PMC9890960, “Exploiting photosynthesis-driven P450 activity to produce indican in tobacco chloroplasts” (Frontiers in Plant Science, 2023)
One block for each molecule: values may come before it.

How the values were obtained:
IsiB^6803 = molecular target: T1, IsiB^6803 (Synechocystis sp. PCC 6803, UniProt P27319); assay: isothermal titration calorimetry; type: binding; conditions: read-out: affinities
T1 construct: gene from colony PCR, pET14b, E. coli BL21(DE3), HisTrap purified; apoprotein for ITC
T1 sequence (P27319 1-170): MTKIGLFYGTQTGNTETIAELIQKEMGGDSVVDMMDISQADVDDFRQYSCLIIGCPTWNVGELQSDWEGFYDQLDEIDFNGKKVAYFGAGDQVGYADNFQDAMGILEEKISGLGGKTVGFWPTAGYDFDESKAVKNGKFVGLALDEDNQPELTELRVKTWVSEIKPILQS

HsCPR^62-241 = molecular target: T2, HsCPR^62-241 (Homo sapiens, UniProt P16435); assay: isothermal titration calorimetry; type: binding; conditions: read-out: affinities
T2 construct: gene POR; soluble flavodoxin-like (FMN) domain, residues 62-241, pET14b, E. coli BL21(DE3), HisTrap purified; apoprotein for ITC
T2 sequence (P16435 62-241): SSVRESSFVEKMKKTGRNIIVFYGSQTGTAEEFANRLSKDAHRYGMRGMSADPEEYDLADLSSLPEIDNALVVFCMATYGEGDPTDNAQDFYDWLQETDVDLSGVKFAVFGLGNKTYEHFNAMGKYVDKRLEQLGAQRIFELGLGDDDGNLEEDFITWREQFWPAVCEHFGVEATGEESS

CYP2A6 = molecular target: T3, CYP2A6 (Homo sapiens, UniProt P11509); assay: indican formation in infiltrated N. benthamiana leaves, LC-MS; conditions: co-expressed with tnaA; chloroplast-targeted; product glucosylated to indican
T3 construct: N-terminal Arabidopsis Fd2 transit peptide fusion; transient expression in Nicotiana benthamiana chloroplasts; amplified from E. coli expression construct
T3 sequence (P11509 1-494): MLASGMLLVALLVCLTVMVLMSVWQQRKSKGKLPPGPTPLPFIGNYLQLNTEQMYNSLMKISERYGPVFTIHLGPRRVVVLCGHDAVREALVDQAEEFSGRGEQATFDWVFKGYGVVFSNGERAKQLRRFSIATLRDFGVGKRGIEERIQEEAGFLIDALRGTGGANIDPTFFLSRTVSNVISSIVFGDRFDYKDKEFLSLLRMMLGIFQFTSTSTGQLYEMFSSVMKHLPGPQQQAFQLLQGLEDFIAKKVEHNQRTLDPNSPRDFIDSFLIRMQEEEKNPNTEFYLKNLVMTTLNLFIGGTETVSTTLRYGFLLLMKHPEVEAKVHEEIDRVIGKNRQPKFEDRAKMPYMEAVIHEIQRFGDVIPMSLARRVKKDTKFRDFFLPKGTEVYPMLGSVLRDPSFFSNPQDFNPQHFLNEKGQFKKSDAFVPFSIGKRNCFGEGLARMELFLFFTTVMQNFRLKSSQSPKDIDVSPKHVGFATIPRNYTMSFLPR

CYP2E1 = molecular target: T4, CYP2E1 (Homo sapiens, UniProt P05181); assay: as above; conditions: co-expressed with tnaA; chloroplast-targeted; product glucosylated to indican
T4 construct: N-terminal Arabidopsis Fd2 transit peptide fusion; transient expression in Nicotiana benthamiana chloroplasts; amplified from E. coli expression construct

tnaA = molecular target: T5, tnaA (Escherichia coli, UniProt P0A853); assay: indole accumulation in infiltrated N. benthamiana leaves, UPLC-UV; design: species or system Nicotiana benthamiana leaves; conditions: chloroplast-targeted; endogenous tryptophan
T5 construct: synthetic gene, N-terminal chloroplast transit peptide (Arabidopsis Fd2); transient expression in Nicotiana benthamiana chloroplasts

spinach FNR (spinach) [1] = molecular target: T6, spinach FNR (spinach) (UniProt P00455)
T6 sequence: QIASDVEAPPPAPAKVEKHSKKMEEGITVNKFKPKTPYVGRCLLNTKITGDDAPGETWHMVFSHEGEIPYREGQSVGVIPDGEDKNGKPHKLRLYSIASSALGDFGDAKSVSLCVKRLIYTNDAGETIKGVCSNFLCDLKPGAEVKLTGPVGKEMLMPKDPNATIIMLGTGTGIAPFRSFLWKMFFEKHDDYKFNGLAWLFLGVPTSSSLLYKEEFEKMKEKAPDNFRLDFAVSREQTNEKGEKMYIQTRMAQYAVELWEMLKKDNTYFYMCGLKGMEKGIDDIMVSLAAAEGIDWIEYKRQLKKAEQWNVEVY

spinach FNR (spinach) [2] = molecular target: T6, spinach FNR (spinach); remark: listed apart in the source

T5 sequence (P0A853 whole entry): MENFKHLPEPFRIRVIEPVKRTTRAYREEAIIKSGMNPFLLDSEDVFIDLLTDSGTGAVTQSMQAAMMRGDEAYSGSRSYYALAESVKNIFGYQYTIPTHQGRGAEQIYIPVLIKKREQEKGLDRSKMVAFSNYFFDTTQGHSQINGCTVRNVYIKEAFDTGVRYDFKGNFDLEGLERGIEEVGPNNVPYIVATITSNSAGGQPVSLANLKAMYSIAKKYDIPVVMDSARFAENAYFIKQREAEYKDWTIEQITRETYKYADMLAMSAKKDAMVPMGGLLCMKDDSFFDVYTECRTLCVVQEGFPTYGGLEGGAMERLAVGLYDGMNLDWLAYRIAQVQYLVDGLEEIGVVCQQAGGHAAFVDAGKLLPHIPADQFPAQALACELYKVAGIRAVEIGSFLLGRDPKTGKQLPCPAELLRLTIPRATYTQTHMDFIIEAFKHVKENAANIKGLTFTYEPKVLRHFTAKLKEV
T4 sequence (P05181 whole entry, the tested form may be a part): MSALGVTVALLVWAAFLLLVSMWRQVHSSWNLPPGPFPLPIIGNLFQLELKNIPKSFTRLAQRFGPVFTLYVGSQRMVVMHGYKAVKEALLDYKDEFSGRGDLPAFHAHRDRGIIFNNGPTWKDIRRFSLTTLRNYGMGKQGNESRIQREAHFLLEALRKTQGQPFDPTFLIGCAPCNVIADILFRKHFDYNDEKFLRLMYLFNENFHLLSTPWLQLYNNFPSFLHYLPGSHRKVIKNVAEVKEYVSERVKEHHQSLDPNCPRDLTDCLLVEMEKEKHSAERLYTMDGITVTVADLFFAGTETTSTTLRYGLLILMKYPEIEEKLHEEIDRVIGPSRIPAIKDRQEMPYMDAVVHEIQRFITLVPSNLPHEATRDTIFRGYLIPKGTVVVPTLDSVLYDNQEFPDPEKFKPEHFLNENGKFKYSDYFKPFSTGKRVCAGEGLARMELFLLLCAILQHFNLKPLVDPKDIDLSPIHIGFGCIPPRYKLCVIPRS

Molecule: c1ccc2[nH]ccc2c1 [indole]
- indican formation in infiltrated N. benthamiana leaves, LC-MS (CYP2A6): accumulation was considerably higher when any P450 was co-expressed with tnaA
- indican formation in infiltrated N. benthamiana leaves, LC-MS (CYP2E1): accumulation was considerably higher when any P450 was co-expressed with tnaA

Molecule: N[C@@H](Cc1c[nH]c2ccccc12)C(=O)O [tryptophan]
- indole accumulation in infiltrated N. benthamiana leaves, UPLC-UV (tnaA): Expression of tnaA alone led to detectable indole accumulation in leaf samples

B1: HsCPR^62-241 (domain or fragment)
chain: T2 sequence (P16435 62-241)
- KM of the electron carrier in NADPH-dependent reduction by FNR (40 nM spinach FNR, carrier 1-100 µM, read by cytochrome c reduction, Michaelis-Menten fit) (spinach FNR (spinach) [1]): 9.2 µM
- Vmax of NADPH-dependent reduction of the electron carrier by FNR (40 nM spinach FNR, carrier 1-100 µM, read by cytochrome c reduction, Michaelis-Menten fit) (µmol cyt c µmol FNR^-1 s^-1) (spinach FNR (spinach) [1]): 125
- Vmax/KM of NADPH-dependent reduction of the electron carrier by FNR (spinach FNR (spinach) [2]): 13.6

Second part, the molecule after the results:

- Kd (IsiB^6803): 2 nM
- Kd (HsCPR^62-241): 25.7 nM
Molecule: Cc1cc2nc3c(=O)[nH]c(=O)nc-3n(C[C@H](O)[C@H](O)[C@H](O)COP(=O)(O)O)c2cc1C [FMN]

- KM of the electron carrier in NADPH-dependent reduction by FNR (40 nM spinach FNR, carrier 1-100 µM, read by cytochrome c reduction, Michaelis-Menten fit) (spinach FNR (spinach) [1]): 21.7 µM
- Vmax of NADPH-dependent reduction of the electron carrier by FNR (40 nM spinach FNR, carrier 1-100 µM, read by cytochrome c reduction, Michaelis-Menten fit) (µmol cyt c µmol FNR^-1 s^-1) (spinach FNR (spinach) [1]): 118
- Vmax/KM of NADPH-dependent reduction of the electron carrier by FNR (spinach FNR (spinach) [2]): 5.4
- decrease of light-driven coumarin 7-hydroxylation by CYP2A B49 in thylakoids (10 µM redox partner) on adding 0.6 µM FNR and 1.6 mM NADP+ (spinach FNR (spinach) [2]): 80%
Molecule: AtFd1 (from UniProt O04090 53-148) (natural protein)

- KM of the electron carrier in NADPH-dependent reduction by FNR (40 nM spinach FNR, carrier 1-100 µM, read by cytochrome c reduction, Michaelis-Menten fit) (spinach FNR (spinach) [1]): 17.7 µM
- Vmax of NADPH-dependent reduction of the electron carrier by FNR (40 nM spinach FNR, carrier 1-100 µM, read by cytochrome c reduction, Michaelis-Menten fit) (µmol cyt c µmol FNR^-1 s^-1) (spinach FNR (spinach) [1]): 10
B2: IsiB^6803 (natural protein)
chain: T1 sequence (P27319 1-170)
